Experimental findings from patent US20180128830A1, “DETECTION OF HUMAN CYTOMEGALOVIRUS IN BREAST CANCER” (priority 2015, published 2018) are described below.

Type in all cases: cell-based, human
One test concerns uPAR. The experiment in a line: uPAR ELISA on culture supernatants. The settings on record: 10 ng/ml. On the procedure:
(§1) DuoSet ELISA kits (R&D Systems) were used to quantify uPAR, PAI-1, and MMP-3. For uPAR and PAI-1 measurement, MDA cells were seeded in triplicate in 96-well plate at 5.0×10^4 cell/mL density with complete L-15 media and treated with 10 ng/mL of either cmvIL-10 or hIL-10 for the indicated times and supernatants were collected daily. The ELISA was carried out on supernatants according to manufacturer's instructions using and following the addition of substrate and stop solution, absorbance of the plate was measured at 450 nm using a Dynex Opsys MR microplate reader. Sample concentrations were interpolated from a standard curve using linear regression analysis. For cell-associated MMP-3, MDA cells were seeded in 96-well plates and treated with cmvIL-10 as above. Cells were treated with cell lysis buffer (150 mM NaCl, 20 mM HEPES, 0.5% Triton-X-100, 1.0 mM NaOV4, 1.0 mM EDTA, 0.1% NaN3) supplemented with 1× protease inhibitors (Calbiochem, EMD Chemicals, San Diego Calif.) and were collected daily for the indicated time points. The lysates were evaluated for MMP-3 according to the manufacturer's instructions (R&D Systems).
On the technique in general: ELISA stands for enzyme-linked immunosorbent assay.

The test system of a further test is PAI-1. The experiment in a line: PAI-1 ELISA on culture supernatants. To be noted: 10 ng/ml; for PAI-1 production: after 24 hours, maintained over 72 hours. The procedure:
as §1

Test [1] relates to MDA-MB-231 cells. Description: Migration assay toward EGF (modified Boyden chamber). To be noted: 5 hrs; for cell movement toward cytokine alone: no EGF. On the procedure:
Cells were harvested and resuspended at a density of 2×10^6 cells per ml in complete medium. A total volume of 0.1 ml cell suspension (2×10^5 cells) was placed in the upper chamber of a ThinCert filter with 8 μm pores in a 24-well plate (Greiner Bio-One North America, Monroe, Calif.). […] Medium from the lower chamber was collected, used to rinse the bottom of the filter twice, and then centrifuged at 1000 rpm for 10 min. The cell pellet was resuspended in 0.1 ml media and transferred to a white 96-well plate. Viable cell number was quantified using the Cell Titer Glo Assay kit according to the manufacturer's protocol.

The subject of another test is Stat1. The experiment in a line: Western blot for Stat1 phosphorylation in MDA-MB-231 cells. To be noted: 100 ng/ml, 15 min. The procedure:
For western blotting, cells were treated with 100 ng/ml cmvIL-10, hIL-10, IFNγ or PBS for 15 min, then harvested into cell lysis buffer (150 mM NaCl, 20 mM HEPES, 0.5% Triton-X-100, 1 mM NaOV4, 1 mM EDTA, 0.1% NaN3). Lysates were clarified, proteins were separated via SDS-PAGE, and then transferred to a nitrocellulose membrane. Then membrane was incubated in blocking solution (5% milk+1×TBS-T) for 1 hr, then probed with primary antibody at a 1:1000 dilution (total Stat3 or pStat3, total Stat1 or pStat1) in blocking solution overnight at 4° C. After washing, the membranes were incubated with a 1:2000 dilution of appropriate AP-conjugated secondary antibody and bands were detected using Western Blue stabilized AP substrate (Promega, Madison, Wis.). For analysis of secreted proteins, supernatants were collected at various time points, analyzed by SDS-PAGE and then immunoblotted as above for cmvIL-10, hIL-10, or serpin E1/PAI.
On the technique in general: Immunoblotting shows a protein as a band on a membrane.

A further test deals with MMP-3. Description: MMP-3 ELISA on cell lysates. The settings on record: 10 ng/ml, 48 hours. On the procedure: as §1
The subject of test [2] is MDA-MB-231 cells. Description: Cell proliferation, Cell Titer Glo. On the procedure: (§2) Cells were seeded into 96-well dishes at a density of 1×10^4 cell per well in complete medium with varying doses of cmvIL-10, and then cell viability measured at the indicated time points using the Cell Titer Glo Assay kit according to manufacturer's instructions (Promega). DNA synthesis was measured in cells prepared in the same way using the BrdU Cell Proliferation ELISA Kit (Roche, Basel, Switzerland). For experiments using inhibitors, cells were cultivated in 96-well dishes as above with a final concentration of 10 μM inhibitor and BrdU incorporation evaluated after 72 hrs. For cell counts, cells were seeded into 6-well plates at a density of 2×10^5 cells per well, harvested via trypsinization, and counted using a hemacytometer at the indicated time points. The TACS Annexin V-FITC Detection Kit (Trevigen, Gaithersburg, Md.) was used to stain cells harvested from 70% confluent T75 flasks that had been treated with 100 μM etoposide for 48 hrs in the presence or absence of 100 ng/ml cmvIL-10. Cells were then analyzed via flow cytometry to detect fluorescence. For viability assays, Cell Titer Glo reagent was utilized to quantify cells that had been seeded into 96-well dishes at a density of 1×10^4 cell per well in complete medium with varying doses of etoposide in the presence or absence of 100 ng/ml cmvIL-10 as indicated
(In ATP-based viability assays light output follows the ATP content of the culture.)

Test [3] relates to MDA-MB-231 cells. The experiment in a line: Cell viability under etoposide, Cell Titer Glo. On the procedure: as §2
Another test concerns MTSS1. Description: MTSS1 immunofluorescence microscopy. To be noted: 100 ng/mL, 96 hrs. On the procedure:
MDA-MB-231 cells were seeded onto FBS-coated glass coverslips at a density of 2.0×10^5 cells/well and cultured for 48 hrs at 37° C. Cells were treated with 100 ng/mL of purified recombinant cmvIL-10 for 96 hrs, then fixed with 2% paraformaldehyde in DPBS for 20 min, washed, permeabilized with 0.2% Triton-X-100 in PBS for 15 min. The cells were washed and blocked with 10% FBS for 1 hr at 37° C., then incubated with anti-MTSS-1 antibody at a 1:100 dilution for 1 hr at 37° C. followed by the addition of goat anti-mouse TRITC secondary antibody at a 1:150 dilution for 30 min (Life Technologies) and Alexa Fluor 488 phalloidin (Molecular Probes, Eugene, Oreg.). Coverslips were washed and excess fluid was removed before inverting the coverslip onto a glass slide containing 20 μL of DAPI-containing Prolong Gold mounting medium (Life Technologies, Grand Island, N.Y.). Images were taken on a Zeiss AX10 Imager.A1 microscope (Carl Zeiss Inc., Oberkochen, Germany) using AxioVision 4.7.2 imaging software.

A further test deals with HEK293 cells. The experiment in a line: Transwell migration toward CXCL12. To be noted: 0.1 μg/ml cmvIL-10 in lower chamber, 4 hours. On the procedure: Transwell migration assays were performed by suspending cells at a density of 5×10^4 cells/ml in migration media (MEM or RPMI […] media plus 0.5% FBS). A total of 75 μl of cells was placed onto the upper chamber of a 96-well transwell system with 5.0 μm pores (Corning-Costar, Corning, N.Y.). The lower chamber contained 235 μl of migration media with CXCL12 plus or minus cmvIL-10 as indicated. Plates were incubated for four hours at 37° C., and then cells that traversed through the filter into the lower chamber were quantified via the addition of CellTitre-Glo reagent (Promega, Madison, Wis.) according to manufacturer's instructions.

Take “hIL-10: purified recombinant human interleukin-10 from R&D Systems”: the uPAR protein levels entry in the test with uPAR is “elevated”. Further, the PAI-1 production entry in the test on PAI-1 was “significant increase in PAI-1 production”. The “cell movement toward cytokine alone” value in the test on MDA-MB-231 cells [1] is reported as “failed to stimulate cell movement”.

B1: cmvIL-10 (protein)
chain: ATTTTIKNTKPQCRPEDYATRLQDLRVTFHRVKPTLQREDDYSVWLDGTVVKGCWGCSVMDWLLRRYLEIVFPAGDHVYPGLKTELHSMRSTLESIYKDMRQCPLLGCGDKSVISRLSQEAERKSDNGTRKGLSELDTLFSRLEEYLHSRK
On to B1, for which, in the test with Stat1, the Stat1 phosphorylation result is listed as “did not globally activate other cellular effectors, such as Stat1”. For the same molecule, the “cell-associated MMP-3 (cell lysates)” value with MMP-3 is given as “increased significantly”. For the same molecule, in the test on uPAR, the uPAR protein levels result is listed as “elevated”. In the test on PAI-1 (12 hours), the PAI-1 protein secreted entry is “significantly increased”. The PAI-1 production entry in the test with PAI-1 is given as “significant increase in PAI-1 production”. Moreover, the “cell growth (cell viability, RLU)” value in the test on MDA-MB-231 cells [2] (100 ng/ml, 72 hrs) is “significantly higher cell growth than control cultures”; in the test with MDA-MB-231 cells [2] (increasing doses of cmvIL-10), “greater growth than control cells”. For the same molecule, the “cell viability over time” value with MDA-MB-231 cells [3] (10 μM etoposide, 100 ng/ml cmvIL-10) was “able to overcome etoposide-induced effects over time and proliferate robustly”. Also, the overall cell viability entry in the test with MDA-MB-231 cells [3] (varying doses of etoposide, 100 ng/ml cmvIL-10, 48 hours) was “increased overall cell viability”. Besides, in the test with MTSS1, the “MTSS1 protein (immunofluorescence)” value is recorded as “dramatic reduction in the amount of MTSS1 protein”. Moreover, the “migration response toward EGF with cytokine in lower chamber” value with MDA-MB-231 cells [1] (100 ng/ml cytokine plus EGF) is “significantly increased”. Also, in the test with MDA-MB-231 cells [1], the “cell movement toward cytokine alone” value is listed as “did not stimulate cell movement”. The “migration toward CXCL12” value in the test with HEK293 cells was “significantly increased”.
